These results are taken from patent CN114230662A (ANYUAN MEDICINE SCIENCE AND TECH SHANGHAI LIMITED COMPANY, dated 2022).

Assay [1] has as its target T1, 人CD47抗原 (recombinant human CD47, 北京义翘神州生物技术有限公司, 货号12283-HCCH) (human, UniProt Q08722 19-139).
T1 construct: The catalogue number is printed only in 6.1 and 6.2; the construct is not described; also called 重组人CD47; human CD47 antigen
Kind of assay: ELISA, coated human CD47 (0.2 μg/ml). In general terms: In an ELISA, binding on a coated surface is turned into a signal by an enzyme label.

Assay [2] deals with T2, human CD47 on cells (Raji-luc, CCRF-CEM, Jurkat, CHO/K1-hCD47) (human, UniProt Q08722 19-323).
T2 construct: whole, on cells; also called 细胞表面的CD47
T2 sequence (Q08722 19-323): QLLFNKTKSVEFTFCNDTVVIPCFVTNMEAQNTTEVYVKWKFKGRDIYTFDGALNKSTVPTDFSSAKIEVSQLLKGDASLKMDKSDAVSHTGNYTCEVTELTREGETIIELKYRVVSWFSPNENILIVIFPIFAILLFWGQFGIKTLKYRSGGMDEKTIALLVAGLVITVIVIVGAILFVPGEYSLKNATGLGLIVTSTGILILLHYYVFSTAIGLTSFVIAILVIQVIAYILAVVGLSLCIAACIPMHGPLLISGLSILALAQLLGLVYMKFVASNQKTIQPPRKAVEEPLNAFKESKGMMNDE
In words: flow cytometry on CHO/K1-hCD47 cells. In general terms: Flow cytometry measures light scatter and fluorescence of single cells or particles in a stream.

Assay [3] has as its target T1, 人CD47抗原 (recombinant human CD47, …). Kind of assay: blocking ELISA on coated human CD47 (2.0 μg/ml); competitor biotin-labelled human SIRPα (0.2 μg/ml).
Assay [4] addresses T2, human CD47 on cells (Raji-luc, …). In words: flow cytometry on CCRF-CEM cells.
Assay [5] has as its target T3, 重组人CD47蛋白(His-tag) (Acro Biosystems, 货号CD-H5227) (human, UniProt Q08722 19-139).
T3 construct: Analyte (mobile phase) in the Biacore T200 measurements of 2.5 and 6.6; also called recombinant human CD47 protein (His-tag); not shown: His tag
Kind of assay: Biacore T200 (called BLI in the filing), method as in example 2.5.

The target in assay [6] is T2, human CD47 on cells (Raji-luc, …). In words: flow cytometry on Raji-luc and Jurkat cells; against control antibody AB12W2.

T1 sequence (Q08722 19-139 limits assumed): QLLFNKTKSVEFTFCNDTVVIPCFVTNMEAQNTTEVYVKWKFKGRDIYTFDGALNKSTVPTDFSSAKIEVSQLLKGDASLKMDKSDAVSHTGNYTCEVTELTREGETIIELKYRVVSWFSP
T3 sequence (Q08722 19-139 limits assumed): as above

B1: AB12W3 (antibody, human IgG4 S228P, kappa, V domains shown)
VH: EVQLVQSGAEVVKPGATVKISCKASGYSFTDYFMTWMKQSPGKSLEWIGRINPYNGETFYNQKFQGKATLTVDKSSTTAHMELSSLRSEDSAVYYCGRGGTAGTDYWGQGTLLTVSS
VL: DVLLTQSPLSLPVTLGQPASISCRSSQSVVRSNGNTYLEWYLQKPGQSPRLLINKVSRRFSGVPDRFSGSGSGSEFTLKISRVEAEDVGIYYCFQGSHVPYTFGQGTKLEIKR
notes: Humanized from Mo2A1621 by resurfacing; Expressed in CHO cells
As for B1, the EC50 in assay [1] stood at 0.0112 µg/mL; in assay [2], 0.461 µg/mL; in assay [3], 1.17 µg/mL.

B2: AB12W2 (antibody, V domains shown)
VH: QMQLVQSGAEVKKTGSSVKVSCKASGFNIKDYYLHWVRQAPGQALEWMGWIDPDQGDTEYAQKFQDRVTITRDRSMSTAYMELSSLRSEDTAMYYCNAAYGSSSYPMDYWGQGTTVTV
VL: NIQMTQSPSAMSASVGDRVTITCKASQDIHRYLSWFQQKPGKVPKHLIYRANRLVSGVPSRFSGSGSGTEFTLTISSLQPEDFATYYCLQYDEFPYTFGGGTKVEIK
notes: Humanized anti-human CD47 control antibody with the variable regions of Celgene's CC-90002 (per CN104271757B); it was detected with anti-human IgG; also called CC-90002 (source of the variable regions); 对照抗体AB12W2
Turning to B2, the EC50 in assay [4] was 0.157 µg/mL; in assay [1], 0.0092 µg/mL; in assay [3], 1.02 µg/mL.

B3: AB12W4 (antibody, human IgG4 S228P, kappa, V domains shown)
VH: QIQLVQSGAEVVKPGASVKISCKASGYTFTDYYINWVKQAPGQRLEWIGWIYPGSGNTKHNQKFQGKATLTVDTSSSTAYMELSSLRSEDTAVYFCARRGTYYYGSSSDGFPYWGQGTLVTVSS
VL: QIVLTQSPATMSASPGERVTISCRASSSVYYMYWYQQKPGQSPRPWIYRTSNLATGVPARFSGSGSGTSYSLTISSMEPEDFATYYCQQYHSYPLTFGQGTKLEIKR
notes: Humanized from Mo2A11971 by resurfacing
Turning to B3, in assay [5], the binding result is on record as “binds”.

B4: AB12W6 (antibody, human IgG4 S228P, kappa)
heavy: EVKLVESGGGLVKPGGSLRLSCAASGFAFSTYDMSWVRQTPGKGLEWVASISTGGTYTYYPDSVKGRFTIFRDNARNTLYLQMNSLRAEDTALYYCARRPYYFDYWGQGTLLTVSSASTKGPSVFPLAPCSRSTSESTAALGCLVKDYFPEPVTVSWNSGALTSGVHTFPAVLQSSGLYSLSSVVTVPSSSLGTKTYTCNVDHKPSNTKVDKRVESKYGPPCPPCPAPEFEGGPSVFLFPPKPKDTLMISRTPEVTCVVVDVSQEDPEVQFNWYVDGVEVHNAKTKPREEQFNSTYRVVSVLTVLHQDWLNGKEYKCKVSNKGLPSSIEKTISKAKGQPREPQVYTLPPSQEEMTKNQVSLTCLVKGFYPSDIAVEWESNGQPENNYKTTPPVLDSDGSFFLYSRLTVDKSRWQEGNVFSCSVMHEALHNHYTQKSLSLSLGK
light: DIKMTQSPSSKSASVGERVTITCQASQDINNYLSWFQQKPGKAPKTLIYRANRLMTGVPSRFSGSGSGQDFSLTISSLQPEDMGIYYCLQFDDFPLTFGQGTKLEIKRTVAAPSVFIFPPSDEQLKSGTASVVCLLNNFYPREAKVQWKVDNALQSGNSQESVTEQDSKDSTYSLSSTLTLSKADYEKHKVYACEVTHQGLSSPVTKSFNRGEC
notes: Humanized from Mo2A21331 by resurfacing
Turning to B4, the EC50 in assay [1] was determined as 0.0128 µg/mL; in assay [2], 0.217 µg/mL; in assay [3] it was 1.29 µg/mL. Moreover, the “EC50 lower than that of the control antibody AB12W2” value in assay [6] was 50%.

B5: AB12W9 (antibody)
heavy: EVKLVESGGGLVKPGGSLRLSCAASGFAFSTYDMSWVRQTPGKGLEWVASISTGGTYTYYPDSVKGRFTIFRDNARNTLYLQMNSLRAEDTALYYCARRPYYFDYWGQGTLLTVSSASTKGPSVFPLAPSSKSTSGGTAALGCLVKDYFPEPVTVSWNSGALTSGVHTFPAVLQSSGLYSLSSVVTVPSSSLGTQTYICNVNHKPSNTKVDKKVEPKSCDKTHTCPPCPAPELLGGPSVFLFPPKPKDQLMISRTPEVTCVVVDVSHEDPEVKFNWYVDGVEVHNAKTKPREEQYASTYRVVSVLTVLHQDWLNGKEYKCKVSNKALPAPIEKTISKAKGQPREPQVYTLPPSREEMTKNQVSLTCLVKGFYPSDIAVEWESNGQPENNYKTTPPVLDSDGSFFLYSKLTVDKSRWQQGNVFSCSVLHEALHNHYTQKSLSLSPGK
light: B4 light
notes: as for B4
On to B5, for which the 50% effective concentration (EC50) was determined as 0.162 µg/mL in assay [4] and 0.252 µg/mL in assay [2].

What is called EC50 is the concentration needed to bring the measured effect to its halfway point.
